The results in this text go back to patent publication US20020197647A1 (ROCKEFELLER UNIVERSITY, published 2002).

The test deals with T1, c-Jun residues 1-104 (Rattus norvegicus (Rat), UniProt P17325 1-101, labeled with 35S by in vitro translation).
T1 construct: In vitro translated fragment; also called N-terminal region of c-Jun
T1 sequence: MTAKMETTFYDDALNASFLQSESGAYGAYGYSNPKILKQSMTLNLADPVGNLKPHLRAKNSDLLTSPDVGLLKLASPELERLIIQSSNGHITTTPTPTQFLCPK
Kind of test: GST pull-down of 35S-labeled in vitro translated c-Jun fragment.

B1: GST-Stat3 (1-154) (other)
chain: MAQWNQLQQLDTRYLKQLHQLYSDTFPMELRQFLAPWIESQDWAYAASKESHATLVFHNLLGEIDQQYSRFLQESNVLYQHNLRRIKQFLQSRYLEKPMEIARIVARCLWEESRLLQTAATAAQQGGQANHPTAAVVTEKQQMLEQHLQDVRKR
notes: GST is placed N-terminal because of the pGEX vector; not shown: Glutathione S-transferase (GST) fusion partner of vector pGEX-5X-1 (Pharmacia)
Regarding B1, the binding result was “no binding”.
